Source: the supplement of paper PMC9170038

System: MS2 coat protein
Experiment: apparent KD of MS2 coat protein; designed switch direction (-1 OFF switch, 1 ON switch): 1; higher = weaker reporter binding
Summary of the method: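 The buffer was Tris-HCl pH 7.5 with KCl, MgCl2, BSA, DTT, tRNA and Tween-20. In it, SNAP-549-labelled MS2 coat protein was titrated in doubling steps from 0.7 or 1.5 nM to 3 µM over chip-bound RNA switches transcribed by stalled E. coli RNA polymerase on Illumina chips. Apparent KD is the per-design median over clusters of curve fits to normalised fluorescence.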

[1] = input ligand: microRNA oligo, concentration not stated
[2] = Eterna round: R95, input ligand: FMN 200 uM
[3] = Eterna round: R95, input ligand: microRNA oligo, concentration not stated
[4] = Eterna round: R95, input ligand: none

| Sequence | apparent KD of MS2 coat protein (input ligand: FMN 200 uM) [nM] | apparent KD of MS2 coat protein [1] [nM] | apparent KD of MS2 coat protein (input ligand: none) [nM] | apparent KD of MS2 coat protein [2] [nM] | apparent KD of MS2 coat protein [3] [nM] | apparent KD of MS2 coat protein [4] [nM] |
| --- | --- | --- | --- | --- | --- | --- |
| GCUACCAUUGAAGCCAACAUGAGGAUCACCCAUGUAUGUUGGUAGGAUAUCGAUUGCUUUGCGAUCGAGAAGGGCUAAGGUAGC [JL SSNG3 1.28] (Eterna round: R96, puzzle: Same State NG 3) | 52.6 | 48 | 45.1 |  |  |  |
| AUGACAUGCACAGGAUAUUAGGCGCAGUACAGAUAAGAAGGGUGGAUCAGCAUACAUGAGGAUCACCCAUGUUGUUGUAACAUG [Same State 1 S2] (Eterna round: R96, puzzle: Same State NG 1) |  | 252 |  |  |  |  |
| GAGUGGUGGAGAGGAUAUGCAUUGUUAUUCACUGUAGAAGGUUCUAACAUGAGGAUCACCCAUGUAGGACUAUUCCUGUGUUUU [Parity 58 - Jieux - Same State NG 1] (Eterna round: R96, puzzle: Same State NG 1) |  | 9.4 |  |  |  |  |
| GUAUAACAUGAGGAUCACCCAUGUCAUCUAAGUCGAGGAUAUGGGCAAAUAUAAUAAGAACCAGAAGGCGAAUAUG [Mat - Same State 1 - Mod of UCT - D34] (puzzle: Same State 1) |  |  |  | 57.8 | 111 | 119 |
| GGUAUCGGCACAGGAUAUGCUAUCCUUUGGGUAGCAGAAGGGUGAACAUGAGGAUCACCCAUGUAGGUGCCAGGGCGUGAGCCC [JL SSNG1 1.80] (Eterna round: R96, puzzle: Same State NG 1) | 213 | 56.4 | 149 |  |  |  |
| UUAACAUGAGGAUCACCCAUGUAUGCGUAGCUUGCAUUUUGACAGGAUAUUGAAUAUCUAUAUAGCAAGAAGGGUCGUUAGUCU [JR_SSNG3_Sub008] (Eterna round: R96, puzzle: Same State NG 3) | 91.8 | 53.3 | 94.9 |  |  |  |
| UGGUACAUGGGAGGAUAUCUCAUGGUGACAUGAGGAUCACCCAUGUAGUUGGAGCCGAAAGGCAGAGAGAAGGCCCAUGUACCU [JL SSNG1 3.77] (Eterna round: R96, puzzle: Same State NG 2) | 69.2 | 65.7 | 96.3 |  |  |  |
| GGUGCCAAUAAAGCCUACAUGAGGAUCACCCAUGUAUGUAGGCAGGAUAUCGUUUGCUUUGCAAACGAGAAGGGCUGAGGCACC [JL SSNG3 1.18] (Eterna round: R96, puzzle: Same State NG 3) | 16.8 | 28.6 | 38.6 |  |  |  |
| UUGAAGAAUUAAGGAUAUUGAAUACAUAUGUUAAACAUGAGGAUCACCCAUGUGGGUUGCGGUAUCGAGAAGGUAAAUUACUAG [Mat - same State NG 2 - JL mod - D80] (Eterna round: R96, puzzle: Same State NG 2) |  | 60.1 |  |  |  |  |
| CGGCUCCGUGGAGGAUAUGGGCCUGCCCGGGAUAACGGGCCUAACACAUGAGGAUCACCCAUGUCCCAGAAGGCCGCUGGAGCC [Enineseson] (Eterna round: R96, puzzle: Same State NG 2) | 14 | 39.1 | 54.4 |  |  |  |
| AUUUAACAAGCUUUUUGCUCGUCUUAUAAACAUGAGGAUCACCCAUGUAAUAGCGUGAGAGUAAAUUAAUAAAUAAU [JMF 83] (puzzle: Sensor for hsa-mir-208a) |  |  |  | 14.5 | 44.7 | 13.5 |
| GGAGCCGGCACCGAGGAUAUUCAUAUUAAAACAUGAGGAUCACCCAUGUAGAGGAGAACCUCUUGGGAGAAGGCGGAUCGGCUCG [Xeonanis - 26] (puzzle: Same State 2) |  |  |  | 289 | 723 | 1090 |
| UGUUGUAUUACAGGAUAUCUAUUAGCUUUAUUUAGAGAAGGGUAUUCACAUGAGGAUCACCCAUGUAUAUACGAGGAAGUUGUG [JMF's solution 88] (Eterna round: R96, puzzle: Same State NG 1) |  | 33.6 |  |  |  |  |
